Experimental findings from publication doi:10.1101/2020.10.23.352708 are described below.

Some targets named below: CXCR4 D97E (human) (UniProt P61073); CXCR4 L41A (human) (UniProt P61073); CXCR4 V112L (human) (UniProt P61073).
What all share (test): flow cytometry on cells
On the technique in general: A flow cytometer gives signals particle by particle.

In the assay with CXCR4 D97E (human), “Endogenous Peptide Inhibitor of CXCR4 (EPI-X4)” had a fold reduction of the binding affinity against wild-type CXCR4 of 20 fold. Moreover, the results for the fold increase of the IC50 against wild-type CXCR4 with CXCR4 L41A (human) and in the assay with CXCR4 V112L (human) were 20 fold and 6 fold, respectively.
